We go through three molecules from paper PMC9430756, “AhrC Negatively Regulates Streptococcus mutans Arginine Biosynthesis”.

The target in data set [1] is T1, AhrC (Streptococcus mutans UA159) (UniProt Q8DVB1).
T1 sequence: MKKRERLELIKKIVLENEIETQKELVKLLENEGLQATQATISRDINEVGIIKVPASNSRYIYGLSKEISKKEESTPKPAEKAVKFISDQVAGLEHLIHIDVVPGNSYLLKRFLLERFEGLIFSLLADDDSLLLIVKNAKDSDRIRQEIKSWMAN
Kind of data set: EMSA. The note with it: EMSA: 20 mM Tris-HCl, 100 mM NaCl, 5% glycerol, 30 min on ice, pH not stated; native PAGE in 0.5x TBE at 4 C. Footprinting: DNase I 0.1 Kunitz units/uL, 4 min ….

Data set [2] has as its target T2, AhrC (Streptococcus mutans UA159, UniProt Q8DVB1 1-154).
T2 sequence: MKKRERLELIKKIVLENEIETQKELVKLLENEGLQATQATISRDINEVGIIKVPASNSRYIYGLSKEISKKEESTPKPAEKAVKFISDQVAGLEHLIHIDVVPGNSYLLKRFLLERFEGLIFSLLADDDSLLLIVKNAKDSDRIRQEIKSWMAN
Nature of the data set: EMSA. The note with it: protein: recombinant; tags: 6xHis (pET28a, NotI/XhoI); chain copies: 6; label: FAM. For orientation: A gel shift assay detects complexes by their altered migration in electrophoresis.

The target of data set [3] is T2, AhrC. Kind of data set: EMSA; EMSA: 20 mM Tris-HCl, 100 mM NaCl, 5% glycerol, 30 min on ice, pH not stated; native PAGE in 0.5x TBE at 4 C. Footprinting: DNase I 0.1 Kunitz units/uL, 4 min at 37 C. The note with it: protein: recombinant; tags: 6xHis (pET28a, NotI/XhoI); chain copies: 6; label: FAM.

Regarding “AATAATTTTGTTATCATGAGTTAAAGTATCTAGTTATAAACTAGGTACTTTTTACATTTTATTCATTTCTAGCTTGACTTATGAATAAATATACGATAAAATAAACAACATCTTTATAAAGGAAGTGAATAAGT (double strand) [argC promoter (argCp)]”, the binding entry in data set [1] was “binds”.

B1: argC p1mut (dsDNA)
DNA 1: CATTTCTAGCTTGCCCCCCGACCCCCCATACGATAAA
DNA 2: TTTATCGTATGGGGGGTCGGGGGGCAAGCTAGAAATG
In the case of B1, the binding result in data set [2] is given as “no binding”.

B2: argC p1 (dsDNA)
DNA 1: CATTTCTAGCTTGACTTATGAATAAATATACGATAAA
DNA 2: TTTATCGTATATTTATTCATAAGTCAAGCTAGAAATG
For the molecule B2, in data set [3], the binding result is given as “binds”.
